The values that follow are results of earlier work, collected in paper PMC10968392.

In this data set the target is SARS-CoV-2 spike protein (cited Kd) (SARS-CoV-2) (UniProt P0DTC2). The data set can be described thus: not stated here (previous study). The following applies: PBSMCT: DPBS, 1 mM MgCl2, 1 mM CaCl2, 0.025% Tween-20; 25 °C, 1 h; pH not stated.

One may read the Kd as a measure of binding affinity in units of concentration. As for “GAACATTGGCGTCCGTGAGCAGCTCGTGGTTGTTTGCTTGTATACTTTTGTGGTTTATCTTGTTTCTGATCACTTCCTCAAACGCCCAA [SpS1-C4 aptamer]”, the Kd is 1.81 nM.

Regarding “GAACATTGGCGTCCGTGAGTGAGACCATAGTCCAGCGAACTAAACCTACCCTAAAGGGCAAGGAAGACGGGCACTTCCTCAAACGCCCAA [SpS1-C1 aptamer]”, the Kd was 1.47 nM.
